Assay results as given in doi:10.1101/2020.07.10.197400 (bioRxiv, 2020).

Key:
[1] = target: Trx-kindlin2_F2 (residues 260 – 572) without PH domain (mouse); assay: SEC-MALS
SEC-MALS = target: the molecule itself; assay: SEC-MALS

stoichiometry N [1]	Molecule	stoichiometry N (SEC-MALS)
2	Trx-kindlin2_F2 (residues 260 – 572) without PH domain (domain or fragment)	–
–	GCN4-tetramerized β1-integrin tail (domain or fragment) MKQIEDKLEEILSKLYHIENELARIKKLLGERIIHDRREFAKFEKEKMNAKWDTGENPIYKSAVTTVVNPKYEGK	4
